From article PMC10805922, “Exosomal secreted SCIMP regulates communication between macrophages and neutrophils in pneumonia” (Nature Communications, 2024)
Where no end group is shown, it is not given here.

Experiments:
[1] = molecular target: T1, human formyl peptide receptor 1 (FPR1) (human, UniProt P21462 1-350); assay: other fluorescence titration; competitive binding assay; labelled SCIMP^N mixed with serially diluted fMLF (5-1280 nM) and a fixed amount of FPR-containing HEK293 membrane debris, fluorescence at 512 nm measured for 4 min
T1 construct: formyl peptide receptor 1, human, overexpressed in HEK293 cells; also called FPR1-HEK293; source: HEK293, transiently overexpressed
T1 sequence (looked up): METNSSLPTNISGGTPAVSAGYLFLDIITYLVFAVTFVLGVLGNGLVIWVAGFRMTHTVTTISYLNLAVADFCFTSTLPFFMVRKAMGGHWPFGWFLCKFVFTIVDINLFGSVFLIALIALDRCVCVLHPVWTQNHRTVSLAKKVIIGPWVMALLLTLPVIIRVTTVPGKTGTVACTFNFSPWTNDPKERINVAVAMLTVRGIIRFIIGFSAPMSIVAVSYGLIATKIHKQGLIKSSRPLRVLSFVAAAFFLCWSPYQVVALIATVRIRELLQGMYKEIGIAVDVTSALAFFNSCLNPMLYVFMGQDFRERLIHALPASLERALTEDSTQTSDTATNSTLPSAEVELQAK

[2] = molecular target: T2, human formyl peptide receptor 2 (FPR2) (human, UniProt P25090 1-351); assay: as above
T2 construct: formyl peptide receptor 2, human, overexpressed in HEK293 cells; also called FPR2-HEK293; source: HEK293, transiently overexpressed
T2 sequence (looked up): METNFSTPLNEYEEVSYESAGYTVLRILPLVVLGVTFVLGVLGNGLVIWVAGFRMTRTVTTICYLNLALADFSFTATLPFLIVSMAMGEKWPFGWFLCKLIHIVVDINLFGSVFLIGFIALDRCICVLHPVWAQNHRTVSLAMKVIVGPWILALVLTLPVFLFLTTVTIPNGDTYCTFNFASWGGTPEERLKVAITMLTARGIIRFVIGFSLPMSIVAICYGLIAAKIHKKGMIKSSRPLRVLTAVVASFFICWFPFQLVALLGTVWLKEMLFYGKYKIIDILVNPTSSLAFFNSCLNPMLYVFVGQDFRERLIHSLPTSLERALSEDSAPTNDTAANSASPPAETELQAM

murine FPR1 [3] = molecular target: T3, murine FPR1 (murine, UniProt P33766 1-364); assay: as above
T3 construct: formyl peptide receptor 1, mouse, overexpressed in HEK293 cells; also called murine formyl peptide receptor 1; source: HEK293 overexpressing FPRs, membrane debris
T3 sequence (looked up): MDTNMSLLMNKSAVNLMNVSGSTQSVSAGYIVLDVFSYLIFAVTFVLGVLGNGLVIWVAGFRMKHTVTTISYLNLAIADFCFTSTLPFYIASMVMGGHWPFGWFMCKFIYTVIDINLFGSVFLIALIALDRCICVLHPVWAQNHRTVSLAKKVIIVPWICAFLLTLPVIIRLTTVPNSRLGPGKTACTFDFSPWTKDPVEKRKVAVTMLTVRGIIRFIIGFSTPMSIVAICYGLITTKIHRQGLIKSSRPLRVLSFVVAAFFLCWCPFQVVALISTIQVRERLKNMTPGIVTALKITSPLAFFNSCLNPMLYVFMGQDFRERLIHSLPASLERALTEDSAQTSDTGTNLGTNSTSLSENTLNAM

murine FPR2 [4] = molecular target: T4, murine FPR2 (murine, UniProt O88536 1-351); assay: as above
T4 construct: formyl peptide receptor 2, mouse, overexpressed in HEK293 cells; also called murine formyl peptide receptor 2; source: HEK293 overexpressing FPRs, membrane debris
T4 sequence (looked up): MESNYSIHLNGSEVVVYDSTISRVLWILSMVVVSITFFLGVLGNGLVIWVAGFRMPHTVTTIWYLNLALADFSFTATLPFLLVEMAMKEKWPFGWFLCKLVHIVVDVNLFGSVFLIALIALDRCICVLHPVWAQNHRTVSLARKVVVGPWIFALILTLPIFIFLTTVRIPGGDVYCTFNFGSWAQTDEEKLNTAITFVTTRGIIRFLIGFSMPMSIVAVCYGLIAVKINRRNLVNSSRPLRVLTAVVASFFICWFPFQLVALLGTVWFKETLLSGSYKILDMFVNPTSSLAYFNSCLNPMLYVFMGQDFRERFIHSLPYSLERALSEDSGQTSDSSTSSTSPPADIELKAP

murine FPR1 [5] = molecular target: T3, murine FPR1; assay: other fluorescence titration; saturation binding assay; BODIPY FL iodoacetamide-labelled SCIMP^N with membrane component (debris) of HEK293 cells overexpressing FPRs, black/clear bottom 96-well plate, quenching of the label on binding, excited at 370 nm, detected at 512 nm, measured for 4 min; details: one partner purified
murine FPR2 [6] = molecular target: T4, murine FPR2; assay: as above; details: one partner purified
[7] = molecular target: T1, human formyl peptide receptor 1 (FPR1); assay: as above; details: one partner purified
[8] = molecular target: T2, human formyl peptide receptor 2 (FPR2); assay: as above; details: one partner purified

In the case of N-Formyl-Met-Leu-Phe (fMLF) (peptide), the IC50 [1] is reported as 55.2 nM, the IC50 [2] is reported as 38.4 nM and the IC50 (murine FPR1 [3]) is reported as 148 nM. For the same molecule, the IC50 (murine FPR2 [4]) was 43.1 nM.

B1: murine SCIMP N-terminus peptide (murine SCIMP^N) (peptide)
peptide: MSWWRDNF
modifications: also: labeled with BODIPY FL iodoacetamide, site not given here
notes: N-terminus peptide; source: synthetic peptide (chemically synthesized and purified; Chinese-Peptide-Company.Inc), purity more than 95%
With B1 the Kd (murine FPR1 [5]) was 1.08 nM and the Kd (murine FPR2 [6]) was 0.54 nM.

B2: human SCIMP N-terminus peptide (SCIMP^N, 18aa) (peptide)
peptide: MDTFTVQDSTAMSWWRNN
modifications: also: labeled with BODIPY FL iodoacetamide, site not given here
notes: the 18 amino acids before the transmembrane domain at the N-terminus (extramembrane fragment); also called SCIMP N-terminal peptides; source: synthetic peptide (Chinese-Peptide-Company.Inc), purity more than 95%
Molecule B2 has a Kd [7] of 3.8 nM and a Kd [8] of 3.5 nM.
